{"source": "patent EP4631972A1", "about": "“SITE-SPECIFIC COUPLED PEGYLATED INTERLEUKIN-2 MUTANT WITH RECEPTOR AFFINITY PREFERENCE AND USE THEREOF” (priority 2022, dated 2024)", "molecules": {"B1": {"name": "80K-1PEG-IL2-N88R-N77C: IL-2 mutant N88R, N77C, conjugation site 77, PEG molecular weight 80kD (conjugate)", "chain": "APTSSSTKKTQLQLEHLLLDLQMILNGINNYKNPKLTRMLTFKFYMPKKATELKHLQCLEEELKPLEEVLNLAQSKC(PEG 80 kDa)FHLRPRDLISRINVIVLELKGSETTFMCEYADETATIVEFLNRWITFSQSIISTLT"}}, "key": {"IL-2βγ dual receptor": {"molecular_target": "T1, IL-2βγ dual receptor (Homo sapiens, UniProt P14784+P31785)", "T1 construct": "Uniprot P14784 1Met-551Val was constructed into plasmid pcDNA3.1(+); Uniprot P31785 1Met-551Thr was constructed into plasmid pcDNA3.1/zeo; expressed in transfected cells; host or cells: 293EC18 cells, transient co-transfection with pCMV/JAK3 and PGL4.52/STAT5RE", "T1 sequence (P14784 27-551)": "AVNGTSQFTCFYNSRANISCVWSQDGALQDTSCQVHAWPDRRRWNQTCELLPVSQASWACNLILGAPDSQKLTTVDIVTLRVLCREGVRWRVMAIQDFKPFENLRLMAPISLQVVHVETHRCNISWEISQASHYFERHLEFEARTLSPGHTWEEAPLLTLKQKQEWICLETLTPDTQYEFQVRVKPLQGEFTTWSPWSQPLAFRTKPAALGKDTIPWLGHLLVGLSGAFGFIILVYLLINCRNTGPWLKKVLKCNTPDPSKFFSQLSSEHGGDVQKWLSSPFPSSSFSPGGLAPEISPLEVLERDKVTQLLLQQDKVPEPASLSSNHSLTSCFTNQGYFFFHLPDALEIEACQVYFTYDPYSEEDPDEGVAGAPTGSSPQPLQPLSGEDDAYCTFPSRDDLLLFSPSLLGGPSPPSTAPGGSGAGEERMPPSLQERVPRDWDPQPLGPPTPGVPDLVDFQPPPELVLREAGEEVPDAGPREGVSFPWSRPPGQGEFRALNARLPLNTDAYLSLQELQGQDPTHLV", "T1 sequence (P31785 23-369)": "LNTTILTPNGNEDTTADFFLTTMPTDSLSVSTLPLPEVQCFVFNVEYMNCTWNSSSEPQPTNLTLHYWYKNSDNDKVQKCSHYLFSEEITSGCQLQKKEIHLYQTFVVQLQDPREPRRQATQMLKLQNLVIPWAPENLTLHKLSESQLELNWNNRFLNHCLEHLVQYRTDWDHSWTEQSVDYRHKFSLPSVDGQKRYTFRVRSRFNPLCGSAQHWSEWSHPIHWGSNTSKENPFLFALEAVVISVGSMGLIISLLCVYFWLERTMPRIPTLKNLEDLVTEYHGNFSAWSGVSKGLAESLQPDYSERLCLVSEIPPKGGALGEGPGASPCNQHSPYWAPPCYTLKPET", "assay": "STAT5 reporter gene assay, activation of IL-2βγ dual receptor in 293EC18/βγ/JAK3/STAT5 cells", "type": "cell-based", "settings": "for activation effect on the IL-2Rβγ dual receptor compared with control IL-2 N88R: Figure 1, concentration of 65.2 nM", "method": "Since the binding of IL-2 to the β and γ subunits of its receptor induces STAT5 phosphorylation, which subsequently leads to dimerization and translocation into the nucleus to promote target gene transcription, this example evaluates the ability of the mutant IL-2 polypeptides to induce signaling through the IL-2 receptor by measuring STAT5 phosphorylation.\nAdherent 293EC18 cells were cultured to about 90% confluence using conventional methods. After trypsin digestion, the cells were resuspended in cell culture medium to 4×10^5 cells/ml and 50 µl/well were added to two 96-well cell culture plates. After incubation at 37°C for 48 h, the supernatant was aspirated and fresh culture medium was added. According to the manufacturer's method, four plasmids, pcDNA3.1(+)/CD122 (constructed by Nanjing Novoacine Biotechnology Co., Ltd, Uniprot P14784 1Met-551Val was constructed into plasmid pcDNA3.1(+)), pcDNA3.1/puro/CD132 (constructed by Nanjing Novoacine Biotechnology Co., Ltd, Uniprot P31785 1Met-551Thr was constructed into plasmid pcDNA3.1/zeo), pCMV/JAK3 (Sino Biological), and PGL4.52/STAT5RE (Promega) were transiently transfected into 293EC18 cells using a cationic transfection reagent (ExFect Transfection Reagent, Vazyme). The obtained cells were named 293EC18/βγ/JAK3/STAT5 cells. Alternatively, five plasmids, pcDNA3.1/zeo/CD25 (constructed by Nanjing Novoacine Biotechnology Co., Ltd, Uniprot P01589 1Met-551Ile constructed into plasmid pcDNA3.1/zeo), pcDNA3.1(+)/CD122 (constructed by Nanjing Novoacine Biotechnology Co., Ltd, Uniprot P14784 1Met-551Val constructed into plasmid pcDNA3.1(+)), pcDNA3.1/puro/CD132 (constructed by Nanjing Novoacine Biotechnology Co., Ltd, UniprotP31785 1Met-551Thr constructed into plasmid pcDNA3.1/zeo), pCMV/JAK3 (Sino Biological), and PGL4.52/STAT5RE (Promega) were transiently transferred into 293EC18 cells, and the obtained cells were named 293EC18/αβγ/JAK3/STAT5 cells. The transfected cells were incubated at 37°C and 5% CO2 for another 6 h.\nEach IL2 mutant was diluted 4-fold in a gradient manner using PBS buffer, with a total of 11 dilutions and a starting concentration of 65.2 nM. In the above cell culture plates, 50 µl/well of each of the serially diluted IL2 mutant samples was added in duplicate. Then, the cell culture plate was placed in an incubator at 37°C and 5% CO2 for overnight culture. The cell culture plates were kept at room temperature for 20 ± 5 minutes to equilibrate the plates to room temperature. Bio-Lite Luciferase Assay System reagents that have been mixed and equilibrated to room temperature were added to the cell culture plates to be tested at 100 µl/well, placed on a microplate shaker at 450 rpm to mix for 2 minutes, then allowed to stand at room temperature for 3 minutes, and the chemiluminescence value was detected with an enzyme plate reader.\nThe logarithm of the final concentration of each IL-2 mutant sample was used as the X-axis, and the chemiluminescence detection results were used as the Y-axis for plotting. Data were analyzed using the four-parameter logistic regression model in GraphPad Prism 9. Table 2 EC50 values for the activation of the IL-2αβγ triple receptor by PEG-IL-2 mutants as determined by a reporter gene assay.\nAccording to the method of Example 3, each polyethylene glycol-modified mutant obtained in this example was assessed for the binding preference to the IL2 receptors by a reporter assay. Table 4 EC50 values for the activation of the IL-2αβγ triple receptor by PEG-IL-2 mutants as determined by a reporter gene assay.\nReferring to Example 3, the phosphorylation of STAT5 was used to evaluate the ability of the PEG-modified IL-2 mutants having a non-natural amino acid mutation prepared in Example 14 to induce signal transduction via the IL-2 receptor. […]"}, "[1]": {"settings": "mouse, in vivo, sc, 1 mg/kg", "description": "Balb/c mice were purchased, with 4 mice in each group. Each IL-2 mutant to be tested was administered subcutaneously once at a dose of 1 mg/kg. Blood was collected from the orbit at different time points after administration, and the plasma was separated and the plasma drug concentration was detected by ELISA. The main pharmacokinetic parameters were calculated, and C-T curve was plotted."}}}
{"molecule": "B1", "values": [{"measurement": "activation effect on the IL-2Rβγ dual receptor compared with control IL-2 N88R", "setting": "IL-2βγ dual receptor", "result": "lower activation effects"}, {"measurement": "activation effect on the IL-2Rβγ dual receptor compared with control IL-2 N88R", "setting": "IL-2βγ dual receptor; listed as 80k-PEG-IL2-N88R-N77C", "result": "the most significant reduction in activation ability"}, {"measurement": "activation effect on / affinity to IL-2Rβγ dual receptor compared with control IL-2 N88R", "setting": "IL-2βγ dual receptor; Figure 2, all concentrations", "result": "further reduced the affinity to IL-2Rβγ"}, {"measurement": "T1/2", "setting": "[1]", "result": "25.23 ± 3.45", "unit": "h"}]}
